Reference: patent publication US20190359986A1 (ROCHE INNOVATION CENTER COPENHAGEN A S, published 2019)

Molecular target: TNF-α
Test: cell-based or functional assay

B1: human TNFR2 Δ7 without His-tag, from clone 1230-1 transfected HeLa cells (receptor)
chain: LPAQVAFTPYAPEPGSTCRLREYYDQTAQMCCSKCSPGQHAKVFCTKTSDTVCDSCEDSTYTQLWNWVPECLSCGSRCSSDQVETQACTREQNRICTCRPGWYCALSKQEGCRLCAPLRKCRPGFGVARPGTETSDVVCKPCAPGTFSNTTSSTDICRPHQICNVVAIPGNASMDAVCTSTSPTRSMAPGAVHLPQPVSTRSQHTQPTPEPSTAPSTSFLLPMGPSPPAEGSTGDFALPVEKPLCLQREAKVPHLPADKARGTQGPEQQHLLITAPSSSSSSLESSASALDRRAPTRNQPQAPGVEASGAGEARASTGSSDSSPGGHGTQVNVTCIVNVCSSSDHSSQCSSQASSTMGDTDSSPSESPKDEQVPFSKEECAFRSQLETPETLLGSTEEKPLPLGVPDAGMKPS
  EC50, L929 cytotoxicity assay; extracellular media from 1230-1 transfected HeLa cells: 1.4 ng/mL

B2: human TNFR2 Δ7 with glutamine 352 changed to arginine, from clone 1138-5 transfected HeLa cells (receptor)
chain: LPAQVAFTPYAPEPGSTCRLREYYDQTAQMCCSKCSPGQHAKVFCTKTSDTVCDSCEDSTYTQLWNWVPECLSCGSRCSSDQVETQACTREQNRICTCRPGWYCALSKQEGCRLCAPLRKCRPGFGVARPGTETSDVVCKPCAPGTFSNTTSSTDICRPHQICNVVAIPGNASMDAVCTSTSPTRSMAPGAVHLPQPVSTRSQHTQPTPEPSTAPSTSFLLPMGPSPPAEGSTGDFALPVEKPLCLQREAKVPHLPADKARGTQGPEQQHLLITAPSSSSSSLESSASALDRRAPTRNQPQAPGVEASGAGEARASTGSSDSSPGGHGTRVNVTCIVNVCSSSDHSSQCSSQASSTMGDTDSSPSESPKDEQVPFSKEECAFRSQLETPETLLGSTEEKPLPLGVPDAGMKPS
  EC50, L929 cytotoxicity assay; extracellular media from 1138-5 transfected HeLa cells: 1.8 ng/mL

B3: mouse TNFR2 Δ7 (SSO-induced, in serum of SSO 3274 or SSO 3305 treated mice) (receptor)
chain: VPAQVVLTPYKPEPGYECQISQEYYDRKAQMCCAKCPPGQYVKHFCNKTSDTVCADCEASMYTQVWNQFRTCLSCSSSCTTDQVEIRACTKQQNRVCACEAGRYCALKTHSGSCRQCMRLSKCGPGFGVASSRAPNGNVLCKACAPGTFSDTTSSTDVCRPHRICSILAIPGNASTDAVCAPESPTLSAIPRTLYVSQPEPTRSQPLDQEPGPSQTPSILTSLGSTPIIEQSTKGGISLPIEKPSCLQRDAKVPHVPDEKSQDAVGLEQQHLLTTAPSSSSSSLESSASAGDRRAPPGGHPQARVMAEAQGFQEARASSRISDSSHGSHGTHVNVTCIVNVCSSSDHSSQCSSQASATVGDPDAKPSASPKDEQVPFSQEECPSQSPCETTETLQSHEKPLPLGVPDMGMKPSQAGWFDQIAVKVA
  EC50, L929 cytotoxicity assay; SSO 3274 treated mice serum: 0.8 ng/mL
  EC50, L929 cytotoxicity assay; SSO 3305 treated mice serum: 0.6 ng/mL

B4: human TNFR2 Δ7 with His-tag, from clone 1319-1 transfected HeLa cells (receptor)
chain: LPAQVAFTPYAPEPGSTCRLREYYDQTAQMCCSKCSPGQHAKVFCTKTSDTVCDSCEDSTYTQLWNWVPECLSCGSRCSSDQVETQACTREQNRICTCRPGWYCALSKQEGCRLCAPLRKCRPGFGVARPGTETSDVVCKPCAPGTFSNTTSSTDICRPHQICNVVAIPGNASMDAVCTSTSPTRSMAPGAVHLPQPVSTRSQHTQPTPEPSTAPSTSFLLPMGPSPPAEGSTGDFALPVEKPLCLQREAKVPHLPADKARGTQGPEQQHLLITAPSSSSSSLESSASALDRRAPTRNQPQAPGVEASGAGEARASTGSSDSSPGGHGTQVNVTCIVNVCSSSDHSSQCSSQASSTMGDTDSSPSESPKDEQVPFSKEECAFRSQLETPETLLGSTEEKPLPLGVPDAGMKPSKGQDNSADIQHSGGRSSLEGPRFEGKPIPNPLLGLDSTRTGHHHHHH
modifications: variably glycosylated
  EC50, L929 cytotoxicity assay; extracellular media from 1319-1 transfected HeLa cells: 1.7 ng/mL
